Laboratory results published in patent publication US20260347481 (published 2026).
Non-standard residues stand in square brackets, D forms with d. No end group written: not given here. *: point of attachment. Biotin = O=C1N[C@H]2[C@H](CS[C@H]2CCCCC(=O)*)N1; Arg(Me2a) = CN(C)C(=N)NCCC[C@H](N)C(=O)O

Target: T1, Target peptide (meEGFR R198/R200) (human, cysteine pairing not given here)
T1 chain: K(Biotin)QCSG[Arg(Me2a)]C[Arg(Me2a)]GKSPSDC-NH2

B1: Example 3 (antibody, V domains shown)
VH: QVQLQESGPGLVKPSGTLSLTCAVSGDSISSSSYYWGWIRQPPGKGLEWIGSIYYSGSTYYNPSLKSRVTISVDTSKNQFSLKLSSVTAADTAVYYCAREWNGLDVWGKGTLVTVSS
VL: LNFMLTQPHSVSESPGKTVTISCTGSSGSIASNYVQWYQQRPGSAPTTVIYEDNQRPSGVPDRFSGSIDSSSNSASLTISGLKTEDEADYYCQSYDRGNTEVMFGGGTKVTVLG
- EC50: 0.0258 nM

B2: Example 2 (antibody, V domains shown)
VH: QVQLQESGPGLVKPSETLSLTCSVSGDSITRSGYYWAWVRQSPGKGLEYIGSISYSGTTYYNPSLKSRVTISVDTSKNQFSLKLSSVTAADTAVYYCAREWNGLDVWGKGTMVTVSS
VL: LNFMLTQPHSVSESPGKTVTISCTRSSGSIASNYVQWYQQRPGSSPTTVIYEDNQRPFGVPDRFSGSIDSSSNSASLTISGLKTEDEADYYCQSYDSGHQIFGGGTKLTVLG
- EC50: 0.0359 nM
